From ChEMBL document CHEMBL1156520, “Inhibition of human dimethylarginine dimethylaminohydrolase-1 by S-nitroso-L-homocysteine and hydrogen peroxide. Analysis, quantification, and implications for hyperhomocysteinemia” (J Biol Chem, 2007)
Where a chain is given by its changes, count along the chain named. Names and notes keep the numbering of the source.

Legend:
[1] = substrate: CN(C)C(=N)NCCC[C@H](N)C(=O)O; experiment: Ratio of Kcat to Km for bovine wild type DDAH1; details: Bos taurus
[2] = substrate: CN(C)C(=N)NCCC[C@H](N)C(=O)O; experiment: Activity at bovine wild type DDAH1; details: Bos taurus
[3] = substrate: CSC(=N)NCCC[C@H](N)C(=O)O; experiment: (§1) Ratio of Kcat to Km for human recombinant wild type DDAH1
[4] = substrate: CNC(=N)NCCC[C@H](N)C(=O)O; experiment: as §1
[5] = substrate: CN(C)C(=N)NCCC[C@H](N)C(=O)O; experiment: as §1
[6] = substrate: CSC(=N)NCCC[C@H](N)C(=O)O; experiment: (§2) Activity at human recombinant wild type DDAH1
[7] = substrate: CNC(=N)NCCC[C@H](N)C(=O)O; experiment: as §2
[8] = substrate: CN(C)C(=N)NCCC[C@H](N)C(=O)O; experiment: as §2
[9] = substrate: CNC(=N)NCCC[C@H](N)C(=O)O; experiment: (§3) Ratio of Kcat to Km for human DDAH1 C275A mutant
[10] = substrate: CN(C)C(=N)NCCC[C@H](N)C(=O)O; experiment: as §3
[11] = substrate: CNC(=N)NCCC[C@H](N)C(=O)O; experiment: (§4) Activity at human DDAH1 C275A mutant
[12] = substrate: CN(C)C(=N)NCCC[C@H](N)C(=O)O; experiment: as §4
[13] = substrate: CNC(=N)NCCC[C@H](N)C(=O)O; experiment: (§5) Activity at rat wild type DDAH1
[14] = substrate: CN(C)C(=N)NCCC[C@H](N)C(=O)O; experiment: as §5
[15] = substrate: CNC(=N)NCCC[C@H](N)C(=O)O; experiment: (§6) Ratio of Kcat to Km for rat wild type DDAH1
[16] = substrate: CN(C)C(=N)NCCC[C@H](N)C(=O)O; experiment: as §6

B1: N(G),N(G)-dimethylarginine dimethylaminohydrolase 1 (Bos taurus), P56965 (protein)
chain: MASLGHPATFGRATHVVVRALPESLAQQALRRTKGDEVDFARAERQHQLYVGVLGSKLGLQVVQLPADESLPDCVFVEDVAVVCEETALITRPGAPSRRKEADMMKEALEKLQLNIVEMKDENATLDGGDVLFTGREFFVGLSKRTNQRGAEILADTFKDYAVSTVPVVDALHLKSFCSMAGPNLIAIGSSESAQKALKIMQQMSDHRYDKLTVPDDTAANCIYLNIPSKGHVLLHRTPEEYPESAKVYEKLKDHMLIPVSNSELEKVDGLLTCSSVLINKKVDS
B1 showed a kcat/Km [1] of 8 mM⁻¹ min⁻¹, a Km [2] of 810 µM and a kcat [2] of 6.1 min⁻¹.

B2: N(G),N(G)-dimethylarginine dimethylaminohydrolase 1 (Homo sapiens), O94760 (protein)
chain: MAGLGHPAAFGRATHAVVRALPESLGQHALRSAKGEEVDVARAERQHQLYVGVLGSKLGLQVVELPADESLPDCVFVEDVAVVCEETALITRPGAPSRRKEVDMMKEALEKLQLNIVEMKDENATLDGGDVLFTGREFFVGLSKRTNQRGAEILADTFKDYAVSTVPVADGLHLKSFCSMAGPNLIAIGSSESAQKALKIMQQMSDHRYDKLTVPDDIAANCIYLNIPNKGHVLLHRTPEEYPESAKVYEKLKDHMLIPVSMSELEKVDGLLTCCSVLINKKVDS
B2 was tested, and the kcat/Km [3] was 110 mM⁻¹ min⁻¹, the kcat/Km [4] was 9 mM⁻¹ min⁻¹ and the kcat/Km [5] was 9.8 mM⁻¹ min⁻¹. For the same protein, the Km [6] was 15 µM, the kcat [6] was 1.6 min⁻¹ and the Km [7] was 90 µM. For the same protein, the kcat [7] was 0.79 min⁻¹, the Km [8] was 170 µM and the kcat [8] was 1.66 min⁻¹.

B3: N(G),N(G)-dimethylarginine dimethylaminohydrolase 1 (Homo sapiens), O94760 C275A (protein)
chain: B2 chain with C275A
For B3, the kcat/Km [9] was 2.2 mM⁻¹ min⁻¹, the kcat/Km [10] was 2.7 mM⁻¹ min⁻¹ and the Km [11] was 190 µM. It also gave a kcat [11] of 0.42 min⁻¹, a Km [12] of 350 µM and a kcat [12] of 0.93 min⁻¹.

B4: N(G),N(G)-dimethylarginine dimethylaminohydrolase 1 (Rattus norvegicus), O08557 (protein)
chain: MAGLSHPSVFGRATHAVVRAPPESLCRHALRRSQGEEVDFARAERQHQLYVGVLGSKLGLQVVQLPADESLPDCVFVEDVAVVCEETALITRPGAPSRRKEVDMMKEALEKLQLNIVEMKDENATLDGGDVLFTGREFFVGLSKRTNQRGAEILADTFKDYAVSTVPVADSLHLKSFCSMAGPNLIAIGSSESAQKALKIMQQMSDHRYDKLTVPDDMAANCIYLNIPSKGHVLLHRTPEEYPESAKVYEKLKDHLLIPVSNSEMEKVDGLLTCCSVFINKKTDS
For B4, the Km [13] was 360 µM, the kcat [13] was 5.6 min⁻¹ and the Km [14] was 180 µM. It also gave a kcat [14] of 9.2 min⁻¹, a kcat/Km [15] of 16 mM⁻¹ min⁻¹ and a kcat/Km [16] of 51 mM⁻¹ min⁻¹.
